Results: patent publication US20250281556A1, “PRODUCTION OF RNA POLYNUCLEOTIDES ENCODING PICORNAVIRUS” (priority 2022, published 2025)

B1: ENV27-V4: ENV27 ribozyme variant, DNA SEQ ID NO: 134, TTTATT and ACGAGAAATCGT inserted into P3 stem insert (nucleic acid)
DNA: ACTCGTTTGAGCGAGTATAAACAGTTTATTAGGCTCAAAGCGGAGAGCAGAACGAGAAATCGTTCTGCTCTCG
modifications: expressed or natural sequence
B2: ENT27-WT: ENV27 ribozyme, corresponding DNA sequence SEQ ID NO: 130, P2 motif TTGGTT (nucleic acid)
DNA: ACTCGTTTGAGCGAGTATAAACAGTTGGTTAGGCTCAAAGCGGAGAGCAGATCTGCTCTCGTCCAA
modifications: further chemistry not given here
B3: ENV27-V3: ENV27 ribozyme variant, DNA SEQ ID NO: 133, TTTATT and GAAA inserted into P3 stem insert (nucleic acid)
DNA: ACTCGTTTGAGCGAGTATAAACAGTTTATTAGGCTCAAAGCGGAGAGCAGAGAAATCTGCTCTCG
modifications: expressed or natural sequence
B4: ENV27-V2: ENV27 ribozyme variant, DNA SEQ ID NO: 132, P2 motif TTTATT; tested with L1 leader sequence (nucleic acid)
DNA: ACTCGTTTGAGCGAGTATAAACAGTTTATTAGGCTCAAAGCGGAGAGCAGATCTGCTCTCG
modifications: expressed or natural sequence

Tests used:
[1] = system: ~260 nt segment of the 5′-end of the viral genome sequence (virus start); assay: Ribozyme cleavage efficiency, test construct with longer ~260 nt virus start; type: biochemical, CVA21; conditions: gel electrophoresis
Description: (§1) Experiments were performed to optimize the ribozyme sequence at the 5′ junctional cleavage sequence region of the in vitro transcription template for CVA21 viral genome based on the test construct design according to FIG. 10B. Initially, a short, about 60 nt segment(S) of the 5′-end of the viral genome (“virus start”) was used to identify ribozymes that yielded high cleavage efficiency. […] Specifically, for an initial candidate ribozyme that yielded >90% cleavage efficiency in the test construct with short ˜60 nt virus start, it yielded only about 10-35% cleavage efficiency upon incorporation of the expression construct for the full-length viral genome. […] Thus, the test construct was redesigned to include a longer, about 260 nt segment (L) of the 5′-end of the viral genome sequence. […] Therefore, the test construct “L” with longer virus start better recapitulates the cleavage efficiency of the candidate ribozyme when incorporated into the full-length viral genome.
Further optimization was performed in the DNA template encoding ENT27 ribozyme, including: • Replacing the P2 motif “TTGGTT” of ENT27-WT with “TTTGTT” (ENT27-V1) or “TTTATT” (ENT27-V2, ENT27-V3, ENT27-V4) to complement the 5′ end of the viral start “UUAAA” after ribozyme cleavage. • Inserting additional nucleotides “GAAA” (ENT27-V3) or “ACGAGAAATCGT” (ENT27-V4) into the P3 stem insert of the ENT27 ribozyme. These optimizations are illustrated in FIG. 11A and FIG. 11B.
The cleavage efficiencies of these optimized ENT27 ribyzomes were analyzed using the test constructs with longer ˜260 nt virus start. The leader sequence used in these constructs include L1 (SEQ ID NO: 135) and L2 (SEQ ID NO: 136).

[2] = system: full-length CVA21 viral genome RNA; assay: Ribozyme cleavage efficiency in the full-length CVA21 viral genome expression construct; type: biochemical; conditions: L1 leader sequence, RT-dPCR and RNA digest methods, vs control vector CVA21v1
Description: as §1
ENV27-V2 ribozyme and L1 leader sequence was then incorporated into the CVA21 viral genome expression construct and tested for cleavage efficiency using both RT-dPCR and RNA digest methods.

Row | Molecule | cleavage efficiency [1] | cleavage efficiency [2]
1 | B1 | improved the cleavage efficiency | –
2 | B2 | promising candidate | –
3 | B3 | improved the cleavage efficiency | –
4 | B4 | much better cleavage efficiency | > 90%
